Among the data in patent publication US20240218342A1, “SITE-SPECIFIC GLYCAN REMODELING OF LYSOSOMAL ENZYMES AND APPLICATIONS THEREOF” (priority 2021, published 2024) are Kd values, retold here.

The target of this experiment is Recombinant human IGF-II R (CI-MPR) (Homo sapiens, UniProt P11717). Put plainly: SPR binding to immobilized CI-MPR. Particulars: 25° C., three independent experiments.
Chain of Recombinant human IGF-II R (CI-MPR) (P11717 41-2491): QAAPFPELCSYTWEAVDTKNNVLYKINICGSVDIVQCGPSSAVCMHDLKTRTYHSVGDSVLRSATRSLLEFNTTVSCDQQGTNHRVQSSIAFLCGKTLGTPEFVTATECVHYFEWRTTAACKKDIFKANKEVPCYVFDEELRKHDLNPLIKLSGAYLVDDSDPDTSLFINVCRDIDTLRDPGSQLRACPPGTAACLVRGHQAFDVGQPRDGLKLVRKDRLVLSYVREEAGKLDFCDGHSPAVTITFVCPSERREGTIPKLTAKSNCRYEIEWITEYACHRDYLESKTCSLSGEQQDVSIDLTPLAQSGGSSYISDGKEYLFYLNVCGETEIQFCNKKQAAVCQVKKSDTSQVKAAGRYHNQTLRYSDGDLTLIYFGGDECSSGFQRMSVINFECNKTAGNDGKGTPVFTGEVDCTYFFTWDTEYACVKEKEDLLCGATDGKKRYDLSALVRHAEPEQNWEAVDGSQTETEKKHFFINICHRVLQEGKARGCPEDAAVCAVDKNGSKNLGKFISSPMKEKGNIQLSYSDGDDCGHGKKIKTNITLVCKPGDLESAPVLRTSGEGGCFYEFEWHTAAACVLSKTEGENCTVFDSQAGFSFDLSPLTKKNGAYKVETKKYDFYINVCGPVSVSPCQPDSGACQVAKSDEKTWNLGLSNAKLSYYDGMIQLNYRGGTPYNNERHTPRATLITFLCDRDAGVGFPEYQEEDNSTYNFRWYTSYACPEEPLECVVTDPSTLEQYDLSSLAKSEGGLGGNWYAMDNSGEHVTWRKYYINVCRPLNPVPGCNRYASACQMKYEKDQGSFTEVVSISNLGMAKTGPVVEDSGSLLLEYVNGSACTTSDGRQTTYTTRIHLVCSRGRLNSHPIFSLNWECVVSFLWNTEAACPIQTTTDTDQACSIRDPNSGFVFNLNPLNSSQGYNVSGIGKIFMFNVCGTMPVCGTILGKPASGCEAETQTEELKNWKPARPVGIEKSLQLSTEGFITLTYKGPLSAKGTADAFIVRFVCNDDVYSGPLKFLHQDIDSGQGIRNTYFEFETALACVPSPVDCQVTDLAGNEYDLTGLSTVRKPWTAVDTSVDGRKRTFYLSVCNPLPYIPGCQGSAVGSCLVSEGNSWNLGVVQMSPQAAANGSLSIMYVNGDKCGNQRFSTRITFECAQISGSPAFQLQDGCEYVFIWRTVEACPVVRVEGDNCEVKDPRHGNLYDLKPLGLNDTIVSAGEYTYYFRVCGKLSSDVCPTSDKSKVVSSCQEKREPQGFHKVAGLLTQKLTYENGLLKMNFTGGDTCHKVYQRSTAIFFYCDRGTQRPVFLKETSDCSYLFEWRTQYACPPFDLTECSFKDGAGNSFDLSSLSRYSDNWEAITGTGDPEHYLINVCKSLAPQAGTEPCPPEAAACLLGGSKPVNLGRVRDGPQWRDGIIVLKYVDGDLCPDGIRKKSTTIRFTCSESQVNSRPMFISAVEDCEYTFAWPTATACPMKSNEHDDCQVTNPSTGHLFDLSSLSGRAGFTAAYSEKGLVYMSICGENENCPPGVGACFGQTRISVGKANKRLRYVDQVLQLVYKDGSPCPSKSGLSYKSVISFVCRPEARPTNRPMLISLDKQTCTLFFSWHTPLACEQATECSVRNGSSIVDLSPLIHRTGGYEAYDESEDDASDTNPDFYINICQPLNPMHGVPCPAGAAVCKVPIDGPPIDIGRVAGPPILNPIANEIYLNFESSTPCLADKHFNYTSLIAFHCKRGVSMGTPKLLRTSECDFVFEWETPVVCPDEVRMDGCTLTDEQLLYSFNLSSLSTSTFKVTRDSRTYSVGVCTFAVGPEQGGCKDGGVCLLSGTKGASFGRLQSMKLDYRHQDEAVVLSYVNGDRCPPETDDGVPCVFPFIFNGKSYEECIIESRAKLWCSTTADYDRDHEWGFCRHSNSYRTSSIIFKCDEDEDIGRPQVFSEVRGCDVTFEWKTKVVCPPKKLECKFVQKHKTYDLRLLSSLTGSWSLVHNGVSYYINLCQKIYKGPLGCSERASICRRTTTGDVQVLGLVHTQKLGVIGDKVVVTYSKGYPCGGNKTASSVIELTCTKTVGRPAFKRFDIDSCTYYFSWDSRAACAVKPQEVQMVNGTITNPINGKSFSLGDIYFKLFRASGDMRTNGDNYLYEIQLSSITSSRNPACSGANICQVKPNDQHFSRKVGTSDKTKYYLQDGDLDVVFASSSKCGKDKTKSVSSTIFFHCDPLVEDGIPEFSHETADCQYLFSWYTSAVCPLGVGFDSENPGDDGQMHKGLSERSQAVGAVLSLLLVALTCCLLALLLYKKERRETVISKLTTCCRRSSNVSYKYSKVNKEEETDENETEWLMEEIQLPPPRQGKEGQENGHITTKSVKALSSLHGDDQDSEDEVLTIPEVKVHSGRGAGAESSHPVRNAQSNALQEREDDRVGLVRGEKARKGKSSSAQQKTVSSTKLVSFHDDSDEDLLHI

Description: Surface Plasmon Resonance (SPR) Measurements. SPR measurements were performed on a Biacore T200 instrument (GE Healthcare). Recombinant human IGF-II R (CI-MPR) was purchased from R&D Systems. Approximately 7000 resonance units (RU) of CI-MPR was immobilized on a CM5 sensor chip in a sodium acetate buffer (25 μg/mL, pH 4.0) at 25° C., using the amine coupling kit provided by the manufacturer. Mannose 6-phosphates containing glycopeptides or glycoproteins were determined at 25° C. under a flow rate of 10 μL/min. HBS-P+ buffer (10 mM HEPES, 150 mM NaCl, 0.05% surfactant P20, pH 7.4) was used as sample buffer and running buffer. Association was measured for 3 min and dissociation for 10 min at the same flow rate (10 μL/min). […] Synthetic glycopeptide and glycoprotein analytes flowed over an immobilized chip with 2-fold serial dilution of the highest concentration of 4 μM (for glycopeptides) or 1 μM (for RNase B) or 250 nM (for rhGAA). Kinetic analyses were performed by global fitting of the binding data to a 1:1 Langmuir binding model using BIAcore T200 evaluation software.

B1: Glycoprotein 68: phosphorylated glycoprotein from GlcNAc-RNase B and oxazoline 8 under wild-type Endo-A catalysis (protein)
chain: KETAAAKFERQHMDSSTSAASSSNYCNQMMKSRNLTKDRCKPVNTFVHESLADVQAVCSQKNVACKNGQTNCYQSYSTMSITDCRETGSSKYPNCAYKTTQANKHIIVACEGNPYVPVHFDASV
modifications: Asn-34 carries GlcNAc extended with M6P tetrasaccharide oxazoline 8 (Man6P-α1,2-Man-α1,3-Man-β1,4-GlcNAc)
On to B1, for which the equilibrium dissociation constant (Kd) is 0.0158 µM.

One may read the Kd as a measure of binding affinity in units of concentration.
